This passage reports Kd results from paper PMC10514558, “Suramin inhibits SARS-CoV-2 nucleocapsid phosphoprotein genome packaging function”.

Series [1] addresses SARS-CoV-2 N CTD (SARS-CoV-2, UniProt P0DTC9 247-364). The series can be described thus: MST. The note with it: protein: recombinant; tags: 6xHis; chain copies: 2; label: 5'-Cy5.
For series [2], the target named is SARS-CoV-2 N NTD (SARS-CoV-2, UniProt P0DTC9 44-180). As to the kind of experiment: MST; 20 nM RNA; no suramin; apparent Kd. To be noted: protein: recombinant; tags: 6xHis; label: 5'-Cy5.

B1: Cy5-ssRNA 7-mer (ssRNA)
RNA: AUUAAAG
As to B1, the values for the Kd in series [1] and in series [2] were 5.3 ± 0.2 µM and 30.6 ± 4.9 µM, respectively.
